Assay: yeast display, Sf9 membrane polyspecificity reagent, FACS + sequencing; frameworks hold sequencing errors
Method in brief: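 A nanobody's polyreactivity label depends on the gate it was sorted from. Yeast display cells were stained with 10% biotinylated, detergent-solubilized Sf9 membrane reagent for 1 hour at 4 °C, enriched on streptavidin microbeads and sorted by FACS. The low and high (top ~1%) gates were set on anti-HA fluorescence for expression and streptavidin fluorescence for reagent binding.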
With “QVQLVESGGRLVQAGGSLRLSCAASGFIISFNAMGWYRQATGKERELVATISGGGGSTYYADSVKGRFTISRDKAKNTVYLQMKSLKPEDTAVYYCAKSYRYRGDYWGQGTQVTVSS” the “polyreactivity (PSR sort gate)” value was “high polyreactivity”.
With “QVQLVESGGRLVQAGGSLRLSCAASGFTFGAYAMGWYRQAPGKERELVATIRYSGDSTYYADSVKGRFTISRDNAKNTVYLQMNSLKPEDTAVSSCAAYSTEGGGSPDWFESFDYWGQGTQVTVSS” the “polyreactivity (PSR sort gate)” value was “low polyreactivity”.
In the case of “QVQLVESGGRLVQAGGSLRLSCAASGFTFLYYAMGWYRQAPGKERELVATITRTSRTYYADSVKGRFTISRDNAKNTVYLQMNSLKPEDTAVYYCAADTPYLRRRLGMDYWGQGTQVTVSS”, the “polyreactivity (PSR sort gate)” value is reported as “high polyreactivity”.
In the case of “QVQLVESGGRLVQAGGSLRLSCAASGGTFPTNAMGWYTQAPGKERELVAAITSSGVRTYYADSVKGRFTISRDNAKNTVYLQMNSLKPEDTAVYYCNAVTRYVRLTDDDYWGQGSQVTVSS”, the “polyreactivity (PSR sort gate)” value is reported as “high polyreactivity”.
With “QVQLVESGGRLVQAGGSLRLSCAASGIIFFYYTIGWSRQAPGKERELVAAISSGGGTYYADSVKGRFTISRDNAKNTVYLQMNSLKPEDTAVYYCAAVRYSSSSRGGYWGQGTQVTVSS” the “polyreactivity (PSR sort gate)” value was “high polyreactivity”.
In the case of “QVQLVESGGRLVQAGGSLRLSCAASGITFIDYAMGWYRQAPGKERELVAAIRYSAGSTYYADSVKGRFTISRDNAKNTVYLQMNSLKPEDTAVYYCARTTPSGRQYRRYDYWGQGTQVTVSS”, the “polyreactivity (PSR sort gate)” value is reported as “low polyreactivity”.
With “QVQLVESGGRLVQAGGSLRLSCAASGITFYLNAMGWYRQAPGKERELVADITVSGGSTYYADSVKGRFTISRDNAKNTVYLQMNSLKPEDTAVYYCAADLTISYSQEYYYWGQGNQVTVSS” the “polyreactivity (PSR sort gate)” value was “low polyreactivity”.
In the case of “QVQLVESGGRLVQAGGSLRLSCAASGLTFSSYAMGWYRQAPGKERQLVAAISRGGGSTYYADSVKGRFTISRDNAKNTGYLQMNSLKPEDTAVYYCAADSGFWWLYDYWGQGTHVTVSS”, the “polyreactivity (PSR sort gate)” value is reported as “high polyreactivity”.
With “QVQLVESGGRLVQAGGSLRLSCAASGLTFVYNTMGWYSQAPGKERKLVAAISSSGGTTYYADSVKGRFTISRDNAKNTVYLQMNSLKPEDTAVYYCAARPSGGYESTRTRDYWGQGTQVTVSS” the “polyreactivity (PSR sort gate)” value was “low polyreactivity”.
In the case of “QVQLVESGGRLVQAGGSLRLSCAASGRIFATYAMGWYRQAPGKEWQLVAGITSGGRTNYADSVKGRFTISRDNAKNTVYLQMNSLKPEDTAVYYCDKRVWPRDQYGKRNPRMDYWGQGTQETVSS”, the “polyreactivity (PSR sort gate)” value is reported as “high polyreactivity”.
With “QVQLVESGGRLVQAGGSLRLSCAASGRIFKYYAMGWYRPAPGKERELVAAINRDGGRTYYADSVKGRFTISRDTAKISVYLQMNSLKPEDTAVYYCAASYGYVYTTSLDYWGQGTQVTVSS” the “polyreactivity (PSR sort gate)” value was “low polyreactivity”.
In the case of “QVQLVESGGRLVQAGGSLRLSCAASGRIFRRYAMGWYRQAPGKERELVAAISGSGGSTYYADSVKGRFTISRDNAKNTVYLQMNCLKPEDTAVYYCAARVGLGYDRLKSEYNYWGQGTQVTVSS”, the “polyreactivity (PSR sort gate)” value is reported as “high polyreactivity”.
With “QVQLVESGGRLVQAGGSLRLSCAASGRIFSIYGMGWYRPAPGKERELVAVISGSVGITYYADSVKGRFTISRDNAKNTVYLQMNSLKPEDTAVYYCNAKVRRRKYDYWGQGTQVTVSS” the “polyreactivity (PSR sort gate)” value was “high polyreactivity”.
With “QVQLVESGGRLVQAGGSLRLSCAASGRIFTWYAMGWYRQAPGKERELVAAISWTGGTTYYADSVKGRFTISRVNAKNTVYLQMNSMKPEDTEVYYCNKVVGFRSNFGGYGYCGQGTQVTVSS” the “polyreactivity (PSR sort gate)” value was “high polyreactivity”.
With “QVQLVESGGRLVQAGGSLRLSCAASGRIFWWNAMGWYRQAPGKERQFVAAISYRGGSTYYADSVKGRFTISRDNAKNTVYLQMNSLKPEDTAVYYCAADWTYVGPSYSYYYWGQGTQVTVSS” the “polyreactivity (PSR sort gate)” value was “low polyreactivity”.
For “QVQLVESGGRLVQAGGSLRLSCAASGRIFYNYSMGWYRQAPGKERELVATIRYRGGSTYYADSVKGRFTISRDNAKNTVYLQMNSLKPEDTAVYYCAARFNYNRDYPYYSWGQGTQVNVSS”, the “polyreactivity (PSR sort gate)” value was “high polyreactivity”.
In the case of “QVQLVESGGRLVQAGGSLRLSCAASGRNFGVNAMGWYRQAPGKERELVAAISVSGDSTYYADSVKGRFTISRDNAKNTVYLQMNSLKPEDTAVYYCNAGYTFVPADLTDEYYWGQGTQVTVSS”, the “polyreactivity (PSR sort gate)” value is reported as “low polyreactivity”.
In the case of “QVQLVESGGRLVQAGGSLRLSCAASGRTFDYYDMGWYRQAPGKERELVAAITWGGGSTYYADSVKGRFSISRDNAKNTVYLQMNSLKPEDTAVYYCNADHFGWPWRVRIHEDDYWGQGTQVTVSS”, the “polyreactivity (PSR sort gate)” value is reported as “low polyreactivity”.
With “QVQLVESGGRLVQAGGSLRLSCAASGRTFGGYMGWYRQAPGKESELVAVISSGDSTNYADSVKGRFTITRDNAKNTVYLQMNSVKPEDSAVYYCIAYGSDRLTLDDFWGQGTQVTVSS” the “polyreactivity (PSR sort gate)” value was “low polyreactivity”.
For “QVQLVESGGRLVQAGGSLRLSCAASGRTFKKYAMGWYRQAPGKERELVAAITGSGGSTYYADSVKGRFTISRDNAKNTVYLQMNSLKPEDTAVYYCAAYAYGVWHSQDGGNFWGQGTQVTVSS”, the “polyreactivity (PSR sort gate)” value was “low polyreactivity”.
In the case of “QVQLVESGGRLVQAGGSLRLSCAASGRTFSAYAMGWYRPAPGKERELVARITSVDSTNYADSVKGRFTISRDNAKNTVYLQMNSPKPEDTAVYYCNATFGYPFVDYDDYWGQGTQVTVSS”, the “polyreactivity (PSR sort gate)” value is reported as “low polyreactivity”.
For “QVQLVESGGRLVQAGGSLRLSCAASGRTFTRNAMGWYRQAPGKERELVAAISWSGGSTYYADSVKGRFTISRDNAKNTVYLQMNSLKPEDTAVYYCAARIWYYNYWGQGTQVTVSS”, the “polyreactivity (PSR sort gate)” value was “high polyreactivity”.
For “QVQLVESGGRLVQAGGSLRLSCAASGRTFTYYAMGWYRQATGKERELVARITTVGSSTYYADSVKGRFTISRDNAKNTVYLQMNSLKPEETAVYYCNADHLWYSLFDYWGQGTQVTVSS”, the “polyreactivity (PSR sort gate)” value was “high polyreactivity”.
With “QVQLVESGGRLVQAGGSLRLSCAASGRTFYRYAMGWYRQAPGKERELVAAITWSGGSTYYADSVKGRFTTSRDNAKNTVYLQMNSLKPEDTAVYYCAATKRRFVKFDYWGQGTQVTVSS” the “polyreactivity (PSR sort gate)” value was “low polyreactivity”.
In the case of “QVQLVESGGRLVQAGGSLRLSCAASGRTFYRYVMGWYRQAHGQVRELVAAISEGGGSTFYADSVKGRFTISRDNAKNTVYLQLNSLKPEDTAVYYCAADYYVRGGFFRYDYWGQGTQVTVSS”, the “polyreactivity (PSR sort gate)” value is reported as “low polyreactivity”.
In the case of “QVQLVESGGRLVQAGGSLRLSCAASGRTIGYYAMGWSRQAPGNEWELVAAISGSGGSTYYADSVKGRFTISRDNAKNTVYLQMNSLKPEDTAVYYCAATTQSRRYEYYYWGQGTQVTVSS”, the “polyreactivity (PSR sort gate)” value is reported as “high polyreactivity”.
In the case of “QVQLVESGGRLVQAGGSLRLSCAASGRTIRYNAMGWYRQAPGKERELVASISDGGSTNYADSVKGRFTISRDNAKNTVYLQMNSLKPEDTAVYYCALAGYRRYGYVYWGQGTQVTVSS”, the “polyreactivity (PSR sort gate)” value is reported as “low polyreactivity”.
In the case of “QVQLVESGGRLVQAGGSLRLSCAASGSIFGYNAMGWYRQAPGKESELVAAIDKSGGNTYYADSVKGRFTISRDNANYTVYLQMNSLKPEDTAVDYCAVRAYRHRSGYSYGYWGQGTQVTVSS”, the “polyreactivity (PSR sort gate)” value is reported as “high polyreactivity”.
For “QVQLVESGGRLVQAGGSLRLSCAASGSIFRSNAMGWYRQAPGKERELVATISSSTGSTYYADSVKGRFTISRDNAKNTVYLQMNSLKPEDTAVYNCAAVQPVKSSSGYHFWYYWGQGTQVTVSS”, the “polyreactivity (PSR sort gate)” value was “high polyreactivity”.
For “QVQLVESGGRLVQAGGSLRLSCAASGSIFSKYTMGWYRQAPGKERELVAAISRAGSTYYADSVKGRFTISRDNAKNTVYLQMNSLKPEDTAVYYCNARYRGVYPLIGNRRDYYYWGQGTQVTVSS”, the “polyreactivity (PSR sort gate)” value was “high polyreactivity”.
For “QVQLVESGGRLVQAGGSLRLSCAASGSIFYDNAMGWYRQAPGKERELVAVITVSGDSTYYADSVKGRFTISRDNAKNTVYLQMNSLKPEDTAVYYCNTDAISGSHFWRYITFGYLDDYWGQGTQVTVSS”, the “polyreactivity (PSR sort gate)” value was “low polyreactivity”.
In the case of “QVQLVESGGRLVQAGGSLRLSCAASGSIFYYNVMGWYRQAPGKERELVAAIDIDGSTYYADSVKGRFTISRDNAKNTVYLQMNSLKPEDTAVYYCAADVHTPALYTYAAGDYWGQGTQVTVSS”, the “polyreactivity (PSR sort gate)” value is reported as “low polyreactivity”.
With “QVQLVESGGRLVQAGGSLRLSCAASGSIFYYYAMGWYRQAPGKERELVAAINGGDTYYADSVKGRFTISRDNAKNTVYLQMNSLKPEDTAVYYCAAEGVTVEWDYDYLGQGTQVTVSS” the “polyreactivity (PSR sort gate)” value was “low polyreactivity”.
With “QVQLVESGGRLVQAGGSLRLSCAASGSTFGWNAMGWYRQAPGKETELVAAISRSGGRTYYADSVKGRFTISRDNANNTVYLQMISLKPEVTAVYYCAADRSTTGGLRGYWGQGTQVTVSS” the “polyreactivity (PSR sort gate)” value was “high polyreactivity”.
In the case of “QVQLVESGGRLVQAGGSLRLSCAASGSTFIQNAMGWSRQAPGKDRELVAAITSGGGTNYADSVKGRFTISRDNAKNTVYLQMNSLKPEDTAVYYCAAEPFNYDDFWFGWEYLYDYWGQATQVTVSS”, the “polyreactivity (PSR sort gate)” value is reported as “low polyreactivity”.
For “QVQLVESGGRLVQAGGSLRLSCAASGSTFTLYAMGWYRQAPGKERELVAAITWRGGSTFYADSVKGRFTISRDNAKNSVYLQMNSLKPEDTAVYYCAADYYSYVVGRIYYWGQGTQVNVSS”, the “polyreactivity (PSR sort gate)” value was “high polyreactivity”.
With “QVQLVESGGRLVQAGGSLRLSCAASGSTFTVYAMGWYRQAPGKESELVAVITGSGGSTYYADSVKGRFTISRDNAKNTVYLQINSLKPEDTAVYYCAKEPGENWTVSWRDFDYWGQGTQVTVSS” the “polyreactivity (PSR sort gate)” value was “low polyreactivity”.
In the case of “QVQLVESGGRLVQAGGSLRLSCAASGSTFYTNAMGWYRQSPGKEMELVAAITSNGDSTYYADSVKGRFTISRDNAKNTVYLQMNSLKPEDTAVYYCAAREFYGGYDNNYDYWGQGTQVTVSS”, the “polyreactivity (PSR sort gate)” value is reported as “low polyreactivity”.
In the case of “QVQLVESGGRLVQAGGSLRLSCAASGSTIYPNAMGWYRPAPGTERELVAGITTIGGSTYYADSVKGRFTISRDNAKNTVYLQMNSLKPEDTAVYYCAARWTFSTWIGFDYWGQGTQVTVSS”, the “polyreactivity (PSR sort gate)” value is reported as “low polyreactivity”.
In the case of “QVQLVESGGRLVQAGGSLRLSCAASGSTSTLYAMGWYRQAPGKERELVAAISKSGGRTYYADSVKGRFTISRDNAKNTVYLQMNSLKPEDTAVYYCNTVPGRYRTFDYWGQGTQVTVSS”, the “polyreactivity (PSR sort gate)” value is reported as “high polyreactivity”.
For “QVQLVESGGRLVQAGGSLRLSCAASGTFDLSAMGWYSQAPGKERELVAAITYRGDTTYYADSVKGRFTISRDNAKNTVYLQMNSMKPEDTAVYYCAAEWYYQFSSWYDYWGQGSQVTVSS”, the “polyreactivity (PSR sort gate)” value was “high polyreactivity”.
For “QVQLVESGGRLVQAGGSLRLSCAASVITFLGNAMGWYRQAPGKERELVAAISASGGRTYYADSVKGRFTISRDNAKNTVYLLMNSLKPEDTAVYYCAAASKPWYYYWGQGTQVTVSS”, the “polyreactivity (PSR sort gate)” value was “high polyreactivity”.
With “QVQLVESGGRLVQAGGSLRLSCAAYGSTFQVNAMGWYRQAPGKERELVAAISRGGGSTYYADSVKGRFTISRDNAKNTVYLQMNSLKPEETAVYYCAAVYYRRISQGDTQTYYQYNYWGQGTQVTVSS” the “polyreactivity (PSR sort gate)” value was “high polyreactivity”.

Reference: the nanobody polyreactivity screen of Harvey et al. (2022)
